Data: patent US20030229922A1, “Materials and methods for the modification of plant cell wall polysaccharides” (GENESIS RESEARCH AND DEVELOPMENT CORPORATION LTD., priority 1998, published 2003)

Substrate: O=P(O)(O)O[C@H]1O[C@H](CO)[C@@H](O)[C@H](O)[C@H]1O
Experiment: purified protein, by the assay type
Conditions: other: E. grandis UGP; SEM 0.002

B1: Eucalyptus grandis UGP (UDP-glucose pyrophosphorylase), SEQ ID NO: 79 (DNA; protein SEQ ID NO: 103) (Eucalyptus grandis) (protein)
chain: VLFTHLPPQKPNRISLLLFFIFHITTFLLLLLLLSVLSTFISIAVSLSDPELFFASPPMAAAATLSAPDAAKLSQLKSAVSGLGQISESEKNGFINLVSRYLSGEAQHVDWSKIQTPTDEIVVPYDSLAPTPQDPAATKSLLDKLVVLKLNGGLGTTMGCTGPKSVIEVRNGLTFLDLIVIQIENLNTKYGCNVPLLLMNSFNTHDDTLKIVEKYANSNIDIHTFNQSQYPRLVVEDFMPLPCKGQTGKDGWYPPGHGDVFASLMNSGKLDALLSQGKEYVFAANSDNLGAIVDLKILNHLMTNKNEYCMEVTPKTLADVKGGTLISYEGKVQLLEIAQVPDEHINEFKSIEKFKIFNTNNLWVNLKAIKRLVEAQALKMEIIPNPKEVDGIKVLQLETAAGAAIKFFDNAIGINVPRSRFLPVKATSDLLLVQSDLYTLVDGFVERNKARTNPSNPSIELGPEFKKVGNFLSRFKSIPSIIELDSLKVSGDVWFGTGITLKGKVTIAAKPGVKLEIPDGVVLENKEIHGPEDL
  Km: 126 µM
